Measurements from US20230330254A1 (Regeneron, published 2023).
Where a chain is given by its changes, count along the chain named. Like-named read-outs stand apart in the source and are kept apart here.

Legend:
[1] = target: T1, N-terminal ectodomain of human GLP1R expressed with a myc-myc hexahistidine tag (human, UniProt P43220 24-145, limits assumed); experiment: SPR, captured via anti-hFc, 25 C
T1 construct: extracellular domain; also called hGLP1R-MMH; hGLP1R.mmh

[2] = target: T2, full-length human GLP1R on HEK293/CRE-Luc/hGLP1R cells (human, UniProt P43220 24-463); experiment: flow cytometry, hGLP1R cells
T2 construct: whole, on cells

[3] = target: T3, full-length human glucagon-like peptide 2 receptor on HEK293/CRE-Luc/hGLP2R cells (human, UniProt O95838 1-553); experiment: cell-based or functional assay
T3 sequence (looked up): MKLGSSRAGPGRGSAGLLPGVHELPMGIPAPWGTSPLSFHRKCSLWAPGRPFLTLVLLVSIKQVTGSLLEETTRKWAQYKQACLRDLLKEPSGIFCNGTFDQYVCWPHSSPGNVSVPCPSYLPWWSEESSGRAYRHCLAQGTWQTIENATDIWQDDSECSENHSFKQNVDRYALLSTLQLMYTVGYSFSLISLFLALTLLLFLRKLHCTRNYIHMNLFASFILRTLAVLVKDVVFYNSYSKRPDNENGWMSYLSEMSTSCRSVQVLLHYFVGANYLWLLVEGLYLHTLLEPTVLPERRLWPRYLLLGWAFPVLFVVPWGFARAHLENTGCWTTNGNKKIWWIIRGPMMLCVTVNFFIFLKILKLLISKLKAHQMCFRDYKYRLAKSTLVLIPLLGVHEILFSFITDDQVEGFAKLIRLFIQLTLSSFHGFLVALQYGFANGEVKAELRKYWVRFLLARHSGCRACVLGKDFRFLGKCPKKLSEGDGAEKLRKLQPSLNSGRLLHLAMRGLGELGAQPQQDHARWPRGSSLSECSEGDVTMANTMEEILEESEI

[4] = target: T4, full-length human glucagon receptor on HEK293/CRE-Luc/hGCGR cells (human, UniProt P47871 26-477); experiment: cell-based or functional assay
[5] = target: T2, full-length human GLP1R on …; experiment: cell-based or functional assay
[6] = target: T5, full-length cynomolgus GLP1R on HEK293/CRE-Luc/mfGLP1R cells (cynomolgus, UniProt F8V479 24-463); experiment: cell-based or functional assay
[7] = target: T6, full-length human gastric inhibitory polypeptide receptor on HEK293/CRE-Luc/hGIPR cells (human, UniProt P48546 22-466); experiment: cell-based or functional assay
T6 sequence (looked up): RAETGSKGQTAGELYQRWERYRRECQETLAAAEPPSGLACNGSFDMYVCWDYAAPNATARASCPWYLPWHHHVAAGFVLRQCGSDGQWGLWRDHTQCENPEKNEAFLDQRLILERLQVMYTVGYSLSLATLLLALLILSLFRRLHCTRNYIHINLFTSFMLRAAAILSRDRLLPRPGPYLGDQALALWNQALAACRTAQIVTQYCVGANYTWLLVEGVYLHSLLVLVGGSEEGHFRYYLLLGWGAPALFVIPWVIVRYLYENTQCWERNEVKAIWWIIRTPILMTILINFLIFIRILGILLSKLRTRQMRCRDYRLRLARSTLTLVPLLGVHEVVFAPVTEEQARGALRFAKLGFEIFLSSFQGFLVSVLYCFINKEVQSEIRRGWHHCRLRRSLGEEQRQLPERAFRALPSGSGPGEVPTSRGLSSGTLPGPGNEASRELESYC

[8] = target: T2, full-length human GLP1R on …; experiment: cell-based or functional assay; remark: listed apart in the source
[9] = target: T5, full-length cynomolgus GLP1R on …; experiment: flow cytometry, mfGLP1R cells
[10] = target: T2, full-length human GLP1R on …; experiment: flow cytometry, hGLP1R cells; remark: listed apart in the source
[11] = target: T5, full-length cynomolgus GLP1R on …; experiment: flow cytometry, mfGLP1R cells; remark: listed apart in the source
[12] = target: T7, full-length mouse GLP1R on HEK293/CRE-Luc/mGLP1R cells (mouse, UniProt O35659 22-463); experiment: flow cytometry, mGLP1R cells
T7 construct: whole, on cells
T7 sequence (looked up): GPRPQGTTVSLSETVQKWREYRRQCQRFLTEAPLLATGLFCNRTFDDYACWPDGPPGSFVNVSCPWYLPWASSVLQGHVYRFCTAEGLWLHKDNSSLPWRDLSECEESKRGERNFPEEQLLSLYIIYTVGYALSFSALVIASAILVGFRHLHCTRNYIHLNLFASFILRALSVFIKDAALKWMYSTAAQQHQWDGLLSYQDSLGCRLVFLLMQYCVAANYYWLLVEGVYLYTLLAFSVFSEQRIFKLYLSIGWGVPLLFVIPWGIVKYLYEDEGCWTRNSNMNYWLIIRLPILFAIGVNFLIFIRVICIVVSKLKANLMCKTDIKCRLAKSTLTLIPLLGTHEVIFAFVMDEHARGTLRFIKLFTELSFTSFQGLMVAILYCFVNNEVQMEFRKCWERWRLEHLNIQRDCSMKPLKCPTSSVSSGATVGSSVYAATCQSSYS

[13] = target: T3, full-length human glucagon-like peptide …; experiment: cell-based or functional assay; remark: listed apart in the source
[14] = target: T4, full-length human glucagon receptor on …; experiment: cell-based or functional assay; remark: listed apart in the source
[15] = target: T2, full-length human GLP1R on …; experiment: cell-based or functional assay; remark: listed apart in the source
[16] = target: T5, full-length cynomolgus GLP1R on …; experiment: cell-based or functional assay; remark: listed apart in the source
[17] = target: T6, full-length human gastric inhibitory …; experiment: cell-based or functional assay; remark: listed apart in the source
[18] = target: T2, full-length human GLP1R on …; experiment: cell-based or functional assay; remark: listed apart in the source
[19] = target: human GLP1R on PathHunter eXpress GLP1R CHO-K1 b-Arrestin GPCR cells (human, UniProt P43220 24-463); experiment: cell-based or functional assay

T4 sequence (P47871 26-477): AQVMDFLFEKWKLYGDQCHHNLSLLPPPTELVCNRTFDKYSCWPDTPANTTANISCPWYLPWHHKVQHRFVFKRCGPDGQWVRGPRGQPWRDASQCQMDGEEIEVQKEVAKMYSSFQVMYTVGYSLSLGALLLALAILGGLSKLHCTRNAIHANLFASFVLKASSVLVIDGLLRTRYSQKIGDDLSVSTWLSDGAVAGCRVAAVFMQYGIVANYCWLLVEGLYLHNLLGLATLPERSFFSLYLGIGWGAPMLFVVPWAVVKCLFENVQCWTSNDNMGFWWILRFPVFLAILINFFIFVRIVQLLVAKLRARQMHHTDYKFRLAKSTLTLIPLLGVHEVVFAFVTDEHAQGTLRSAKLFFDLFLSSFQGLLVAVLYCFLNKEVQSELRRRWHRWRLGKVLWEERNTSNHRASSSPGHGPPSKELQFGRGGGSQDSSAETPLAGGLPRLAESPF
T1 sequence (P43220 24-145 limits assumed): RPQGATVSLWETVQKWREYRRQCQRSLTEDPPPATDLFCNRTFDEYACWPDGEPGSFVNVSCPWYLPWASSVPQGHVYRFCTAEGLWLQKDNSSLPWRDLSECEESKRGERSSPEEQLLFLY

B1: REGN8070-M3190 (antibody, human IgG4 S228P, kappa, V domains shown)
VH: QVQLVESGGGVGQPGRSLRLSCAASGFTFSRNAMHWVRQAPGKGLEWVAVISYDGSNKHYADSVKGRFTISRDNSKNTLYLEMNSLRVEDTAVYYCAKGGIPFDYWGQGTLVTVSS
VL: DIVMTQSPLSSPVTLGQPASISCRSSQSLVHFDGNTYLSWLHQRPGQPPRLLIYKISNRFSGVPDRFSGSGAGTDFTLKISRVEPEDVGVYYCMHATQFPYTFGQGTKLEIKR
modifications: linker-payload M3190 (LP11) on Gln 3 of the N-terminal Q-tag LLQGSG
notes: antibody-tethered drug conjugate; also called REGN8070 ATDC
90 nM hGLP1R.mmh Bound (RU) [1]: 86.7 RU | Kd [1]: 0.069 nM | koff [1]: 6.06e-05 s⁻¹ | kon [1]: 878000 M⁻¹ s⁻¹ | t1/2 [1]: 190 min | EC50 [2]: 4.39 nM | Flow S/N [2]: 166 fold | CRE-luc EC50 [3]: > 200 nM | CRE-luc EC50 [4]: > 200 nM | CRE-luc EC50 [5]: 94 pM | CRE-luc EC50 [6]: 97.3 pM | CRE-luc EC50 [7]: > 200 nM | CRE-luc EC50 [8]: 98.4 pM | CRE-luc Relative Potency (% M2361 EC50) [8]: 16.5% | CRE-luc Relative Signal:Noise (% M2361) [8]: 112% | CRE-luc S/N [8]: 71.8 fold | EC50 [9]: 3.71 nM | Flow S/N [9]: 155 fold

B2: REGN8072-M3190 (antibody, human IgG4 S228P, kappa, V domains shown)
VH: QVQLVESGGGVVQPARSLRLSCAASGFAFSRSAMHWVRQAPGKGLEWVAVISYDGSNKYYTDSVKGRFTISRDNSKNTLYLQMNTLRAEDTALYYCAKMYTTMDSFDYWGQGTLVTVSS
VL: DIQLTQSPSFLSASVGDRVTITCWASQGISSYLAWYQQKPGKAPKLLIYAASTLQSGVPSRFSGSGSGTEFTLTISSLQPEDFALYYCQQLNSYPRTFGQGTKVEIKR
modifications: linker-payload M3190 (LP11) on Gln 3 of the N-terminal Q-tag LLQGSG
notes: antibody-tethered drug conjugate; also called REGN8072 ATDC; anti-GLP1R mAb4-LP11
90 nM hGLP1R.mmh Bound (RU) [1]: 77.3 RU | Kd [1]: 0.17 nM | koff [1]: 0.000297 s⁻¹ | kon [1]: 1.74e+06 M⁻¹ s⁻¹ | t1/2 [1]: 39 min | EC50 [2]: 3.88 nM | Flow S/N [2]: 173 fold | CRE-luc EC50 [3]: > 200 nM | CRE-luc EC50 [4]: > 200 nM | CRE-luc EC50 [5]: 114 pM | CRE-luc EC50 [6]: 137 pM | CRE-luc EC50 [7]: > 200 nM | CRE-luc EC50 [8]: 87.4 pM | CRE-luc Relative Potency (% M2361 EC50) [8]: 18.6% | CRE-luc Relative Signal:Noise (% M2361) [8]: 125% | CRE-luc S/N [8]: 80.7 fold | EC50 [9]: 3.39 nM | Flow S/N [9]: 148 fold

B3: REGN7990 (antibody, human IgG4 S228P, kappa, V domains shown)
VH: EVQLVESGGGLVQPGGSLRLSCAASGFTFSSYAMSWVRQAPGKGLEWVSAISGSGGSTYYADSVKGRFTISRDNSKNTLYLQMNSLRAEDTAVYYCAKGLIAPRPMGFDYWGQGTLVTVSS
VL: DIQMTQSPSSVSASVGDRVTITCRASQGINSWLAWYQQKPGKAPKLLIYAASSLQSGVPSRFSGSGSGTDFTLTISSLQPEDFATYYCHQADSFPYTFGQGTKLEIKR
notes: IgG4; Q-tag on light chain N-terminus; also called mAb 3; REGN7990 unconjugated Ab
EC50 [10]: 8.48 nM | Flow S/N [10]: 260 fold | EC50 [2]: 1.89 nM | Flow S/N [2]: 256 fold | EC50 [11]: 7.47 nM | Flow S/N [11]: 528 fold | EC50 [12]: 61.4 nM | Flow S/N [12]: 154 fold | EC50 [9]: 0.988 nM | Flow S/N [9]: 205 fold | CRE-luc EC50 [13]: > 30 nM | CRE-luc EC50 [14]: > 30 nM | CRE-luc EC50 [15]: > 30 nM | CRE-luc EC50 [16]: > 30 nM | CRE-luc EC50 [17]: > 30 nM

B4: REGN15869 (antibody, human IgG4 S228P, kappa, V domains shown)
VH: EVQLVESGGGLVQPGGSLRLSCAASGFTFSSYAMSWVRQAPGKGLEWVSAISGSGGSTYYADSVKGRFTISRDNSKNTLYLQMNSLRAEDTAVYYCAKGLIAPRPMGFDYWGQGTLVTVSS
VL: B3 VL with Q55E
notes: IgG4; Q-tag on light chain N-terminus; also called REGN15869 unconjugated Ab
EC50 [10]: 9.56 nM | Flow S/N [10]: 106 fold | CRE-luc EC50 [18]: > 1000 nM | CRE-luc Emax (% GLP-1) [18]: 0.5% | b-arrestin 2 recruitment EC50 [19]: > 1000 nM | b-arrestin 2 recruitment Emax (% GLP-1) [19]: 4.3% | EC50 [11]: 8.96 nM | Flow S/N [11]: 132 fold | EC50 [12]: 43.1 nM | Flow S/N [12]: 53.3 fold | CRE-luc EC50 [13]: > 30 nM | CRE-luc EC50 [14]: > 30 nM | CRE-luc EC50 [15]: > 30 nM | CRE-luc EC50 [16]: > 30 nM | CRE-luc EC50 [17]: > 30 nM

B5: REGN9268 (antibody, human IgG4 S228P, kappa)
heavy: not shown
light: LLQGSGEIVLTQSPGTLSLSPGERDTLSCRASQSIAGRYVAWYQQKPGQAPRLLIYGASSRATGIPDRFSGSGSGTDFTLTISRLEPEDFAVYYCQQYGSSPWTFGQGTKVEIKRTVAAPSVFIFPPSDEQLKSGTASVVCLLNNFYPREAKVQWKVDNALQSGNSQESVTEQDSKDSTYSLSSTLTLSKADYEKHKVYACEVTHQGLSSPVTKSFNRGEC
notes: IgG4; Q-tag LLQGSG at the N-terminus of the light chain; also called mAb 17; REGN9268 unconjugated Ab
EC50 [10]: 3.33 nM | EC50 [11]: 4.13 nM | EC50 [12]: 45 nM | EC50 [9]: 0.81 nM

B6: REGN9267-M3190 (antibody, human IgG4 S228P, kappa)
heavy: not shown
light: EIVLTQSPGTLSLSPGERDTLSCRASQSIAGRYVAWYQQKPGQAPRLLIYGASSRATGIPDRFSGSGSGTDFTLTISRLEPEDFAVYYCQQYGSSPWTFGQGTKVEIKRTVAAPSVFIFPPSDEQLKSGTASVVCLLNNFYPREAKVQWKVDNALQSGNSQESVTEQDSKDSTYSLSSTLTLSKADYEKHKVYACEVTHQGLSSPVTKSFNRGEC
modifications: linker-payload M3190 (LP11) on Gln 3 of the N-terminal Q-tag LLQGSG
notes: antibody-tethered drug conjugate; Q-tag on heavy chain; also called REGN9267 ATDC
90 nM hGLP1R.mmh Bound (RU) [1]: 110 RU | Kd [1]: 0.528 nM | koff [1]: 0.000186 s⁻¹ | kon [1]: 353000 M⁻¹ s⁻¹ | t1/2 [1]: 62 min | EC50 [2]: 5.08 nM | Flow S/N [2]: 269 fold | CRE-luc EC50 [3]: > 200 nM | CRE-luc EC50 [4]: > 200 nM | CRE-luc EC50 [5]: 212 pM | CRE-luc EC50 [6]: 250 pM | CRE-luc EC50 [7]: > 200 nM | CRE-luc EC50 [8]: 85.4 pM | CRE-luc Relative Potency (% M2361 EC50) [8]: 19% | CRE-luc Relative Signal:Noise (% M2361) [8]: 107% | CRE-luc S/N [8]: 68.9 fold | EC50 [9]: 4.44 nM | Flow S/N [9]: 212 fold
